In the assay the target is T1, chicken FANCD2, wild type, purified recombinant (chicken, UniProt Q68Y81 1-1439).
T1 construct: FANCD2, chicken (Gallus gallus); also called cFANCD2; WT cFANCD2; source: E. coli BL21(DE3) codon(+)RIL, purified
Description: SEC; Superdex 200 10/300 GL; equimolar mixture of cFANCD2 and cFANCI; 20 mM Tris-HCl (pH 8.0), 10% glycerol, 200 mM NaCl, 5 mM 2-mercaptoethanol; fractions on 7% SDS-PAGE, silver staining. To be noted: both partners purified.

T1 sequence (Q68Y81 whole entry): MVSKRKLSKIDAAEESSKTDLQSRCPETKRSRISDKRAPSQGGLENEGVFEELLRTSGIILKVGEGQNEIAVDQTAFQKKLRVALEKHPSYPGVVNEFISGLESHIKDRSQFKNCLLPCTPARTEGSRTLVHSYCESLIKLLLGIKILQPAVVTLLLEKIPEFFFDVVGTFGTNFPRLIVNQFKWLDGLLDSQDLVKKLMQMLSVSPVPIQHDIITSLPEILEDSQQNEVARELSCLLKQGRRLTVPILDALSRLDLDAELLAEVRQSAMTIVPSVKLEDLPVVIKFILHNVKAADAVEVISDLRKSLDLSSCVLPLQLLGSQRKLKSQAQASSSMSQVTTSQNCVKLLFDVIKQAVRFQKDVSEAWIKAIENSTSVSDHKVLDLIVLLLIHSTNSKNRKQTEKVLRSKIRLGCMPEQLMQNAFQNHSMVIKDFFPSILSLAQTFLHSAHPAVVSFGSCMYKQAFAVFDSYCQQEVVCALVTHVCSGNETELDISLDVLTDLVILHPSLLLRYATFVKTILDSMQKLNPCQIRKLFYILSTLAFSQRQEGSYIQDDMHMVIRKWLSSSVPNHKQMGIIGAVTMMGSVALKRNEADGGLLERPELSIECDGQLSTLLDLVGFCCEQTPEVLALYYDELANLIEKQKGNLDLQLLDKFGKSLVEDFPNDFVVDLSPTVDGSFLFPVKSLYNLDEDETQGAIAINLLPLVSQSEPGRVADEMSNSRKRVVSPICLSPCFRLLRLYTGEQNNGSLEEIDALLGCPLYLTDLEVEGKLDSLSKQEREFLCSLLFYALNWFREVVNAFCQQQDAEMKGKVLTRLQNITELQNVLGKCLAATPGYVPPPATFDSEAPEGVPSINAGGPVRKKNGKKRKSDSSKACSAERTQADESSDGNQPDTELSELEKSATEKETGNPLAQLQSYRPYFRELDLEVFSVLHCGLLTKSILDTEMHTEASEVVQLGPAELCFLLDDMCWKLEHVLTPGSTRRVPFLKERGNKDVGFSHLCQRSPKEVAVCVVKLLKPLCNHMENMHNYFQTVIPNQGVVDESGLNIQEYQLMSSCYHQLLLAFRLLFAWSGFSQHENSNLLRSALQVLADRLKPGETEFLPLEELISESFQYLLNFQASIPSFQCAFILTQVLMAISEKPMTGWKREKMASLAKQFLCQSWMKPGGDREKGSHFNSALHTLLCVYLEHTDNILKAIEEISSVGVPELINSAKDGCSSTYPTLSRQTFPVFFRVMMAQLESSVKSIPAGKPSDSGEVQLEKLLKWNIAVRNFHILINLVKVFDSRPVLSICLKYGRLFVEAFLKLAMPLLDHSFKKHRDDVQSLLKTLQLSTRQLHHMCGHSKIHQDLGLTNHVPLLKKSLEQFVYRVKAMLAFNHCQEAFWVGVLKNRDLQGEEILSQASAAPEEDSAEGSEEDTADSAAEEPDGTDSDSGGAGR

B1: chicken FANCI, wild type, purified recombinant (natural protein, UniProt B0I564 1-1338, looked up)
chain: MAQRILQLAAEGSPERLQEALQGLTEGELGDMVTRQALRGRETAALLKGIFKGSPCSQQSGVLRRLQVYKHCVSLVESGDLHVGKVSEIIGLLMLEARQLPGHALAELATLFVEVIKRGSLSNGKSLELFSTVLTALSNSKESLAYGKGELNGEEFKKQLINTLCSSKWDPQCVIHLANMFRDIPLSGEELQFVVEKVLRMFSKLDLQEIPPLVYQLLLLSAKGSKKTVLEGIISFFNQLDKRQKEEQRVPQSADLEVATVPLDQLRHVEGTVILHIVSAINLDQDIGEELIKHLKTEQQKDPGKALCPFSVSLLLSTAVKHRLQEQIFDFLKTSITRSCKDLQILQASKFLQDLCPQQYDVTAVILEVVKNSAFGWDHVTQGLVDLGFSLMESYEPKKSFGGKAAETNLGLSKMPAQQACKLGASILLETFKVHEPIRSDILEQVLNRVLTKAASPVSHFIDLLSNIVVSAPLVLQNSSSRVTETFDNLSFLPIDTVQGLLRAVQPLLKVSMSVRDSLILVLQKAIFSRQLDARKAAVAGFLLLLRNFKILGSLTSSQCSQAIGATQVQADVHACYNSAANEAFCLEILGSLRRCLSQQADVRLMLYEGFYDVLRRNSQLASSIMETLLSQIKQYYLPQQDLLPPLKLEGCIMAQGDQIFLQEPLAHLLCCIQHCLAWYKSTVHLCKGAEDEEEEEDVGFEQNFEEMLESVTRRMIKSELEDFELDKSADFSPSSGVGVKNNIYAIQVMGICEVLIEYNFKIGNFSKNKFEDVLGLFTCYNKLSEILKEKAGKNKSTLGNRIARSFLSMGFVSTLLTALFRDNAQSHEESLAVLRSSTEFMRYAVSVALQKVQQLEEMGQTDGPDGQNPEKMFQNLCKITRVLLWRYTSIPTAVEESGKKKGKSISLLCLEGLLRIFNTMQQLYAARIPQFLQALDITDGDAEEADINVTEKAAFQIRQFQRSLVNQLSSAEDDFNSKETQLLITILSTLSKLLDPGSQQFLQFLTWTVKICKENALEDLSCCKGLLTLLFSLHVLYKSPVSLLRELAQDIHACLGDIDQDVEIESRSHFAIVNVKTAAPTVCLLVLGQADKVLEEVDWLIKRLTILGSDTSEDSTQASNQTQALEKGVILQLGTLLTVFHELVQTALPAGSCVDSLLRSLSKTYAILTSLIKHYIQACRSTSNTVPGRLEKLVKLSGSHLTPQCYSFITYVQNIHSESLSFAEEKKKKKKEDETAVVSTVMAKVLRDTKPIPNLIFAIEQYEKFLIHLSKKSKVNLMQYMKLSTSRDFRINASMLDSVLQEQNTEDAENEPDNNQSGTAEQPDENQEPQKKRRRKK
notes: FANCI, chicken (Gallus gallus); also called cFANCI; WT cFANCI; source: E. coli BL21(DE3) codon(+)RIL, purified
As for B1, the binding result is recorded as “binds”.

The values above are taken from PMC4260917, “Defective FANCI Binding by a Fanconi Anemia-Related FANCD2 Mutant” (PLoS ONE, 2014).
